According to US20150344570A1 (published 2015):

T1: FcγRIIb extracellular domain with C-terminal His tag (human, UniProt P31994 43-217)
T1 construct: extracellular domain; expressed in FreeStyle293 cells; analyte in Biacore; also called FcgRIIb; 2b
T1 sequence (looked up): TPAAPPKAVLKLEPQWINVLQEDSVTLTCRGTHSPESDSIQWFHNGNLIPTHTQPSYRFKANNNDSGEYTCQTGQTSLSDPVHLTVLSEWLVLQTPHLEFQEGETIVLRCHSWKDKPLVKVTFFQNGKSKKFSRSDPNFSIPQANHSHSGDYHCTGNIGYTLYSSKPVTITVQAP


What was measured:
[1] = biological target: T2, FcγRIa extracellular domain with C-terminal His tag (human, UniProt P12314 16-292); experiment: SPR (Biacore), captured antibody, FcγR as analyte; relative binding
T2 construct: extracellular domain; expressed in FreeStyle293 cells; analyte in Biacore; also called FcgRI; 1a
T2 sequence (P12314 16-292): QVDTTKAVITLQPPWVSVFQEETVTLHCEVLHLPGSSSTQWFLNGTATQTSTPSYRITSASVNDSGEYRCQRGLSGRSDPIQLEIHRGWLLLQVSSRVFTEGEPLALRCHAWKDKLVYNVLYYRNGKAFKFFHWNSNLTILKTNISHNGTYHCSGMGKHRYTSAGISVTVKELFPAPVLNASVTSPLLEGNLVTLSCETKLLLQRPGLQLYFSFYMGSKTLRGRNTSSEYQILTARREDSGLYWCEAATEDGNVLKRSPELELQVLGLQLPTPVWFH

[2] = biological target: T1, FcγRIIb extracellular domain with …; experiment: as above

| He/Con_1a [1] | He/Con_2b [2] | Binder |
| --- | --- | --- |
| 107 % of HeCon Ab (GpH7-A5/GpH7-B3/GpL16-k0 = 100) | 61.4 % of HeCon Ab (GpH7-A5/GpH7-B3/GpL16-k0 = 100) | GpH7-A5/GpH7-B3 variant S298_15Y/GpL16-k0 (antibody, human IgG1, kappa, He Ab; IgG1, mutation in one H chain) heavy 1: not shown heavy 2: not shown light: DIVMTQSPLSLPVTPGEPASISCQASESLVHSNRNTYLHWYLQKPGQSPQLLIYKVSNRFSGVPDRFSGSGSGTDFTLKISRVEAEDVGVYYCSQNTHVPPTFGQGTKVEIERTVAAPSVFIFPPSDEQLKSGTASVVCLLNNFYPREAKVQWKVDNALQSGNSQESVTEQDSKDSTYSLSSTLTLSKADYEKHKVYACEVTHQGLSSPVTKSFNRGEC |
| 107 % of HeCon Ab (GpH7-A5/GpH7-B3/GpL16-k0 = 100) | 77.9 % of HeCon Ab (GpH7-A5/GpH7-B3/GpL16-k0 = 100) | GpH7-A5/GpH7-B3 variant S298_14T/GpL16-k0 (antibody, human IgG1, kappa, He Ab; IgG1, mutation in one H chain) heavy 1: not shown heavy 2: not shown light: DIVMTQSPLSLPVTPGEPASISCQASESLVHSNRNTYLHWYLQKPGQSPQLLIYKVSNRFSGVPDRFSGSGSGTDFTLKISRVEAEDVGVYYCSQNTHVPPTFGQGTKVEIERTVAAPSVFIFPPSDEQLKSGTASVVCLLNNFYPREAKVQWKVDNALQSGNSQESVTEQDSKDSTYSLSSTLTLSKADYEKHKVYACEVTHQGLSSPVTKSFNRGEC |
| 109 % of HeCon Ab (GpH7-A5/GpH7-B3/GpL16-k0 = 100) | 57.8 % of HeCon Ab (GpH7-A5/GpH7-B3/GpL16-k0 = 100) | GpH7-A5/GpH7-B3 variant S298_12R/GpL16-k0 (antibody, human IgG1, kappa, He Ab; IgG1, mutation in one H chain) heavy 1: not shown heavy 2: not shown light: DIVMTQSPLSLPVTPGEPASISCQASESLVHSNRNTYLHWYLQKPGQSPQLLIYKVSNRFSGVPDRFSGSGSGTDFTLKISRVEAEDVGVYYCSQNTHVPPTFGQGTKVEIERTVAAPSVFIFPPSDEQLKSGTASVVCLLNNFYPREAKVQWKVDNALQSGNSQESVTEQDSKDSTYSLSSTLTLSKADYEKHKVYACEVTHQGLSSPVTKSFNRGEC |
| 108 % of HeCon Ab (GpH7-A5/GpH7-B3/GpL16-k0 = 100) | 47.6 % of HeCon Ab (GpH7-A5/GpH7-B3/GpL16-k0 = 100) | GpH7-A5/GpH7-B3 variant S298_10E/GpL16-k0 (antibody, human IgG1, kappa, He Ab; IgG1, mutation in one H chain) heavy 1: not shown heavy 2: not shown light: DIVMTQSPLSLPVTPGEPASISCQASESLVHSNRNTYLHWYLQKPGQSPQLLIYKVSNRFSGVPDRFSGSGSGTDFTLKISRVEAEDVGVYYCSQNTHVPPTFGQGTKVEIERTVAAPSVFIFPPSDEQLKSGTASVVCLLNNFYPREAKVQWKVDNALQSGNSQESVTEQDSKDSTYSLSSTLTLSKADYEKHKVYACEVTHQGLSSPVTKSFNRGEC |
| 107 % of HeCon Ab (GpH7-A5/GpH7-B3/GpL16-k0 = 100) | 70.6 % of HeCon Ab (GpH7-A5/GpH7-B3/GpL16-k0 = 100) | GpH7-A5/GpH7-B3 variant S298_07I/GpL16-k0 (antibody, human IgG1, kappa, He Ab; IgG1, mutation in one H chain) heavy 1: not shown heavy 2: not shown light: DIVMTQSPLSLPVTPGEPASISCQASESLVHSNRNTYLHWYLQKPGQSPQLLIYKVSNRFSGVPDRFSGSGSGTDFTLKISRVEAEDVGVYYCSQNTHVPPTFGQGTKVEIERTVAAPSVFIFPPSDEQLKSGTASVVCLLNNFYPREAKVQWKVDNALQSGNSQESVTEQDSKDSTYSLSSTLTLSKADYEKHKVYACEVTHQGLSSPVTKSFNRGEC |
| 106 % of HeCon Ab (GpH7-A5/GpH7-B3/GpL16-k0 = 100) | 48.3 % of HeCon Ab (GpH7-A5/GpH7-B3/GpL16-k0 = 100) | GpH7-A5/GpH7-B3 variant S298_09D/GpL16-k0 (antibody, human IgG1, kappa, He Ab; IgG1, mutation in one H chain) heavy 1: not shown heavy 2: not shown light: DIVMTQSPLSLPVTPGEPASISCQASESLVHSNRNTYLHWYLQKPGQSPQLLIYKVSNRFSGVPDRFSGSGSGTDFTLKISRVEAEDVGVYYCSQNTHVPPTFGQGTKVEIERTVAAPSVFIFPPSDEQLKSGTASVVCLLNNFYPREAKVQWKVDNALQSGNSQESVTEQDSKDSTYSLSSTLTLSKADYEKHKVYACEVTHQGLSSPVTKSFNRGEC |
| 109 % of HeCon Ab (GpH7-A5/GpH7-B3/GpL16-k0 = 100) | 61.3 % of HeCon Ab (GpH7-A5/GpH7-B3/GpL16-k0 = 100) | GpH7-A5/GpH7-B3 variant S298_11K/GpL16-k0 (antibody, human IgG1, kappa, He Ab; IgG1, mutation in one H chain) heavy 1: not shown heavy 2: not shown light: DIVMTQSPLSLPVTPGEPASISCQASESLVHSNRNTYLHWYLQKPGQSPQLLIYKVSNRFSGVPDRFSGSGSGTDFTLKISRVEAEDVGVYYCSQNTHVPPTFGQGTKVEIERTVAAPSVFIFPPSDEQLKSGTASVVCLLNNFYPREAKVQWKVDNALQSGNSQESVTEQDSKDSTYSLSSTLTLSKADYEKHKVYACEVTHQGLSSPVTKSFNRGEC |
| 109 % of HeCon Ab (GpH7-A5/GpH7-B3/GpL16-k0 = 100) | 63.5 % of HeCon Ab (GpH7-A5/GpH7-B3/GpL16-k0 = 100) | GpH7-A5/GpH7-B3 variant S298_16H/GpL16-k0 (antibody, human IgG1, kappa, He Ab; IgG1, mutation in one H chain) heavy 1: not shown heavy 2: not shown light: DIVMTQSPLSLPVTPGEPASISCQASESLVHSNRNTYLHWYLQKPGQSPQLLIYKVSNRFSGVPDRFSGSGSGTDFTLKISRVEAEDVGVYYCSQNTHVPPTFGQGTKVEIERTVAAPSVFIFPPSDEQLKSGTASVVCLLNNFYPREAKVQWKVDNALQSGNSQESVTEQDSKDSTYSLSSTLTLSKADYEKHKVYACEVTHQGLSSPVTKSFNRGEC |
| 109 % of HeCon Ab (GpH7-A5/GpH7-B3/GpL16-k0 = 100) | 65.4 % of HeCon Ab (GpH7-A5/GpH7-B3/GpL16-k0 = 100) | GpH7-A5/GpH7-B3 variant S298_04F/GpL16-k0 (antibody, human IgG1, kappa, He Ab; IgG1, mutation in one H chain) heavy 1: not shown heavy 2: not shown light: DIVMTQSPLSLPVTPGEPASISCQASESLVHSNRNTYLHWYLQKPGQSPQLLIYKVSNRFSGVPDRFSGSGSGTDFTLKISRVEAEDVGVYYCSQNTHVPPTFGQGTKVEIERTVAAPSVFIFPPSDEQLKSGTASVVCLLNNFYPREAKVQWKVDNALQSGNSQESVTEQDSKDSTYSLSSTLTLSKADYEKHKVYACEVTHQGLSSPVTKSFNRGEC |

The remaining lines, values behind:

| Binder | He/Con_1a [1] | He/Con_2b [2] |
| --- | --- | --- |
| GpH7-A5/GpH7-B3 variant Q295_15Y/GpL16-k0 (antibody, human IgG1, kappa, He Ab; IgG1, mutation in one H chain) heavy 1: not shown heavy 2: not shown light: DIVMTQSPLSLPVTPGEPASISCQASESLVHSNRNTYLHWYLQKPGQSPQLLIYKVSNRFSGVPDRFSGSGSGTDFTLKISRVEAEDVGVYYCSQNTHVPPTFGQGTKVEIERTVAAPSVFIFPPSDEQLKSGTASVVCLLNNFYPREAKVQWKVDNALQSGNSQESVTEQDSKDSTYSLSSTLTLSKADYEKHKVYACEVTHQGLSSPVTKSFNRGEC | 102 % of HeCon Ab (GpH7-A5/GpH7-B3/GpL16-k0 = 100) | 65.4 % of HeCon Ab (GpH7-A5/GpH7-B3/GpL16-k0 = 100) |
| GpH7-A5/GpH7-B3 variant Q295_16H/GpL16-k0 (antibody, human IgG1, kappa, He Ab; IgG1, mutation in one H chain) heavy 1: not shown heavy 2: not shown light: DIVMTQSPLSLPVTPGEPASISCQASESLVHSNRNTYLHWYLQKPGQSPQLLIYKVSNRFSGVPDRFSGSGSGTDFTLKISRVEAEDVGVYYCSQNTHVPPTFGQGTKVEIERTVAAPSVFIFPPSDEQLKSGTASVVCLLNNFYPREAKVQWKVDNALQSGNSQESVTEQDSKDSTYSLSSTLTLSKADYEKHKVYACEVTHQGLSSPVTKSFNRGEC | 102 % of HeCon Ab (GpH7-A5/GpH7-B3/GpL16-k0 = 100) | 62.7 % of HeCon Ab (GpH7-A5/GpH7-B3/GpL16-k0 = 100) |
| GpH7-A5/GpH7-B3 variant S298_01G/GpL16-k0 (antibody, human IgG1, kappa, He Ab; IgG1, mutation in one H chain) heavy 1: not shown heavy 2: not shown light: DIVMTQSPLSLPVTPGEPASISCQASESLVHSNRNTYLHWYLQKPGQSPQLLIYKVSNRFSGVPDRFSGSGSGTDFTLKISRVEAEDVGVYYCSQNTHVPPTFGQGTKVEIERTVAAPSVFIFPPSDEQLKSGTASVVCLLNNFYPREAKVQWKVDNALQSGNSQESVTEQDSKDSTYSLSSTLTLSKADYEKHKVYACEVTHQGLSSPVTKSFNRGEC | 104 % of HeCon Ab (GpH7-A5/GpH7-B3/GpL16-k0 = 100) | 80.1 % of HeCon Ab (GpH7-A5/GpH7-B3/GpL16-k0 = 100) |
| GpH7-A5/GpH7-B3 variant S298_02A/GpL16-k0 (antibody, human IgG1, kappa, He Ab; IgG1, mutation in one H chain) heavy 1: not shown heavy 2: not shown light: DIVMTQSPLSLPVTPGEPASISCQASESLVHSNRNTYLHWYLQKPGQSPQLLIYKVSNRFSGVPDRFSGSGSGTDFTLKISRVEAEDVGVYYCSQNTHVPPTFGQGTKVEIERTVAAPSVFIFPPSDEQLKSGTASVVCLLNNFYPREAKVQWKVDNALQSGNSQESVTEQDSKDSTYSLSSTLTLSKADYEKHKVYACEVTHQGLSSPVTKSFNRGEC | 107 % of HeCon Ab (GpH7-A5/GpH7-B3/GpL16-k0 = 100) | 73.4 % of HeCon Ab (GpH7-A5/GpH7-B3/GpL16-k0 = 100) |
| GpH7-A5/GpH7-B3 variant S298_03V/GpL16-k0 (antibody, human IgG1, kappa, He Ab; IgG1, mutation in one H chain) heavy 1: not shown heavy 2: not shown light: DIVMTQSPLSLPVTPGEPASISCQASESLVHSNRNTYLHWYLQKPGQSPQLLIYKVSNRFSGVPDRFSGSGSGTDFTLKISRVEAEDVGVYYCSQNTHVPPTFGQGTKVEIERTVAAPSVFIFPPSDEQLKSGTASVVCLLNNFYPREAKVQWKVDNALQSGNSQESVTEQDSKDSTYSLSSTLTLSKADYEKHKVYACEVTHQGLSSPVTKSFNRGEC | 110 % of HeCon Ab (GpH7-A5/GpH7-B3/GpL16-k0 = 100) | 64.5 % of HeCon Ab (GpH7-A5/GpH7-B3/GpL16-k0 = 100) |
| GpH7-A5/GpH7-B3 variant Q295_18N/GpL16-k0 (antibody, human IgG1, kappa, He Ab; IgG1, mutation in one H chain) heavy 1: not shown heavy 2: not shown light: DIVMTQSPLSLPVTPGEPASISCQASESLVHSNRNTYLHWYLQKPGQSPQLLIYKVSNRFSGVPDRFSGSGSGTDFTLKISRVEAEDVGVYYCSQNTHVPPTFGQGTKVEIERTVAAPSVFIFPPSDEQLKSGTASVVCLLNNFYPREAKVQWKVDNALQSGNSQESVTEQDSKDSTYSLSSTLTLSKADYEKHKVYACEVTHQGLSSPVTKSFNRGEC | 102 % of HeCon Ab (GpH7-A5/GpH7-B3/GpL16-k0 = 100) | 64.9 % of HeCon Ab (GpH7-A5/GpH7-B3/GpL16-k0 = 100) |
